Data as given in US20260348975 (published 2026).

B1: AB1070141 (antibody, V domains shown)
VH: QVQLQQSGAELMKPGASVKLSCKATGYIVTDYWIEWVKQRPGHGLEWIGEILPRSDSTNYNEKFKVRATFTADTSSNTAYMQLSSLTTEDSAIYYCASHYHYDGSLFVYWGQGTLVTVSS
VL: DIVMSQSPSSLAVSAGEKVTMSCKSSQSLLNSRTRKNYLAWYQQKPGQSPKLLIYWASTRESGVPDRFTGSGSGTDFTLTISSVQAEDLAVYYCKQSYSLPTFGGGTKLEIK
B2: AB1070008 (antibody, V domains shown)
VH: QVQLQQSGPELVKPGASVKTSCKASGYSFTSYYIHWVKQRPGQGLEWIGWIYPGSGNTKYNEKFKGKATLTADTSSSTAFMQLSSLTSEDSAVYYCASGFHYYGRMDYWGQGTTLTVSS
VL: DIQMTQSPSSLSASLGERVSLTCRASQEISGYLSWLQQKPDGTIKRLIYSTSTLDSGVPKSFSGSRSGSDYSLTISSLESEDFADYYCLQYASSPWTFGGGTKLEIK
B3: AB1070019 (antibody, V domains shown)
VH: QVQLQQSGAELAKPGASVKMSCKASGYTFTRYWMHWIKQRPGQGLEWIGYINPYSGYTEYNQKFKDKATLTADKSSSTAYMQLSSLTSEDSAVYYCARYSYYTYDGRGYAMDYWGQGTSVTVSS
VL: DIVMTQSQKFMSTSVGDRVSVTCKASQNVGTNVAWYQQKPGQSPKALIYSASYRYSGVPDRFTGSGSGTDFTLTISNVQSEDLAEYFCQQYNSYPFTFGSGTKLEIK

Experiments:
Assay in all cases: SPR
[1] = target: T1, oxidized IL-33 (human)
T1 chain: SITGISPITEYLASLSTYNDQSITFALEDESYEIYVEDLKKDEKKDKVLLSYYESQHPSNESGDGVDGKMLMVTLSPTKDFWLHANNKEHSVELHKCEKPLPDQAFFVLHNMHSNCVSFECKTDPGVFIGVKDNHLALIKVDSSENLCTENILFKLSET

[2] = target: T2, reduced IL-33 (human)
T2 chain: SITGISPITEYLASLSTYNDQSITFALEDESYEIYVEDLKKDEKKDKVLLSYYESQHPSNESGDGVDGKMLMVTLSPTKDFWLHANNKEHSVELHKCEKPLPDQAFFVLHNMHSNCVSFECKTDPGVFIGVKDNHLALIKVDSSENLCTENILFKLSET

[3] = target: T3, IL-33/sST2 complex (human)
T3 chain 1: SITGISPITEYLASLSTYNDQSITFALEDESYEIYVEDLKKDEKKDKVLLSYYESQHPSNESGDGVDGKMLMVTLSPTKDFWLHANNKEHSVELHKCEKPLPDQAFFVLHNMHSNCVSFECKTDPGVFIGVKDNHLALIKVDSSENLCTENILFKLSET
T3 chain 2: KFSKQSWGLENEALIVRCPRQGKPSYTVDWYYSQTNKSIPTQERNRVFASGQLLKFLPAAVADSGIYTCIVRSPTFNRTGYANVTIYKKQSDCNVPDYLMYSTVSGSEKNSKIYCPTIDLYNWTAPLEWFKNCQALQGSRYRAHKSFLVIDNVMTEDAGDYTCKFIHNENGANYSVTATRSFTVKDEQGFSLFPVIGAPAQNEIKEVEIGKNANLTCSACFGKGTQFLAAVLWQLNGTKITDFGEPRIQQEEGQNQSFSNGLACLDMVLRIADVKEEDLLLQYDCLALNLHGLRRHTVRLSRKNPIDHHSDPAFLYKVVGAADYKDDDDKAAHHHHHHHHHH

Row | Binder | Kd [1] [nM] | Kd [2] [nM] | Kd [3] [nM]
1 | B1 | 1.83 |  | 
2 | B2 |  | 0.895 | 26.5
3 | B3 |  | 0.068 | 
